According to patent publication US20180057581A1:
Changes are numbered by the printed parent chain.

B1: Celine, IgG1_D265A (antibody, V domains shown)
VH: QVQLQQSGPGLVKPSQTLSLTCAISGDSVSTSSAAWNWIRQSPSRGLEWLGRTYYRSKWKHEYAVSVKSRITINPDTSKNQFSLQLNSVTPEDTAVYYCARDRYYYSAFDYWGQGTLVTVSS
VL: QSALTQPASVSGSPGQSITISCTGTSSDVGGYNSVSWYQQHPGKAPKLIIYAVSNRPSGVSNRFSGSKSGNTASLTISGLQAEDEADYYCASYDERFTRVFGGGTKLTVLG
B2: Meriem, IgG1_D265A (antibody, V domains shown)
VH: B1 VH with H61K, V65Q
VL: B1 VL
B3: Laurine, IgG1_D265A (antibody, V domains shown)
VH: B1 VH with T31S, S32N, H61K, V65Q
VL: B1 VL with Q1D, S2I, I49M
B4: Maelle, IgG1_D265A (antibody, V domains shown)
VH: B1 VH with D27E, H61K, V65Q
VL: B1 VL
B5: Madeleine, IgG1_D265A (antibody, V domains shown)
VH: B1 VH with T31S, S32N, H61K, V65Q
VL: B1 VL with I49M
B6: Blanche, IgG1_D265A (antibody, V domains shown)
VH: B1 VH with T31S, S32N, V65M
VL: B1 VL with Q1D, S2I, I49M
B7: Caline, IgG1_D265A (antibody, V domains shown)
VH: B1 VH with T31S, S32N, V65M
VL: B1 VL with I49M
B8: Satine, IgG1_D265A (antibody, V domains shown)
VH: EVQLVESGGGLVKPGGSLRLSCAASGFTFSIYAMSWVRQAPGKGLEWVGRIKSNADGGTTEYAAPVKGRFTISRDDSKNTLYLQMNSLKTEDTAVYYCARMRYYSDLYFDPWGQGTLVTVSS
VL: SYELTQPPSVSVSPGQTASITCSGDKLGQKYVSWYQQKPGQSPVLVISQDRKRPSGIPERFSGSNSGNTATLTISGTQAEDEADYYCQTWTHLQWVFGGGTKLTVLG
B9: Romaine, IgG1_D265A (antibody, V domains shown)
VH: B8 VH
VL: DIELTQPPSVSVSPGQTASITCSGDAIGSKYVHWYQQKPGQAPVLVISKDNKRPSGIPERFSGSNSGNTATLTISGTQAEDEADYYCQTATVSSYWWVFGGGTKLTVLG
B10: HeRX1-10G1, IgG1 (antibody, V domains shown)
VH: QVQLQESGPGLVKPSQTLSLTCTVSDYSITSDYAWNWIRQFPGKGLEWMGYISYSGSTSYNPSLKSRITISRDTSKNQFSLQLNSVTAADTAVYYCASFDYAHAMDYWGQGTTVTVSS
VL: DIVLTQSPAFLSVTPGEKVTFTCQASQSIGTSIHWYQQKTDQAPKLLIKYASESISGIPSRFSGSGSGTDFTLTISSVEAEDAADYYCQQINSWPTTFGGGTKLEIKR
B11: HeRX1-10G1, IgG1_D265A (antibody, V domains shown)
VH: B10 VH
VL: B10 VL
B12: Blanche, IgG1_D265A (antibody, V domains shown)
VH: B1 VH with T31S, S32N, V65M
VL: DIALTQPASVSGSPGQSITISCTGTSSDVGGYNSVSWYQQHPGKAPKLMIYAVSNRPSGVSNRFSGSKSGNTASLTISGLQAEDEADYYCASYDERFTRVFGGGTKLTVLGQ
B13: Celine, IgG1_D265A (antibody, V domains shown)
VH: B1 VH
VL: B12 VL with D1Q, I2S, M49I
B14: Caline, IgG1_D265A (antibody, V domains shown)
VH: B1 VH with T31S, S32N, V65M
VL: B12 VL with D1Q, I2S
B15: Camille (format not stated) (antibody, V domains shown)
VH: B1 VH with D27E
VL: B12 VL with D1Q, I2S, M49L
B16: Madeleine, IgG1_D265A (antibody, V domains shown)
VH: B1 VH with T31S, S32N, H61K, V65Q
VL: B12 VL with D1Q, I2S
B17: Laurine, IgG1_D265A (antibody, V domains shown)
VH: B1 VH with T31S, S32N, H61K, V65Q
VL: B12 VL
B18: Maelle, IgG1_D265A (antibody, V domains shown)
VH: B1 VH with D27E, H61K, V65Q
VL: B12 VL with D1Q, I2S, M49I
B19: Meriem, IgG1_D265A (antibody, V domains shown)
VH: B1 VH with H61K, V65Q
VL: B12 VL with D1Q, I2S, M49I
B20: Camille, IgG1_D265A (antibody, V domains shown)
VH: B1 VH with D27E
VL: B12 VL with D1Q, I2S, M49L
B21: Romaine, IgG1_D265A (antibody, V domains shown)
VH: B8 VH
VL: DIELTQPPSVSVSPGQTASITCSGDAIGSKYVHWYQQKPGQAPVLVISKDNKRPSGIPERFSGSNSGNTATLTISGTQAEDEADYYCQTATVSSYWWVFGGGTKLTVLGQ
B22: Servane, IgG1_D265A (antibody, V domains shown)
VH: B8 VH with I31T, M34I, R50F, N54K, A55H, D56N, G57S
VL: SYELTQPPSVSVSPGQTASITCSGDKLGQKYVSWYQQKPGQSPVLVISQDRKRPSGIPERFSGSNSGNTATLTISGTQAEDEADYYCQTWTHLQWVFGGGTKLTVLGQ
B23: Satine, IgG1_D265A (antibody, V domains shown)
VH: B8 VH
VL: B22 VL
B24: HeRX1-10G1, IgG1 (antibody, V domains shown)
VH: B10 VH
VL: DIVLTQSPAFLSVTPGEKVTFTCQASQSIGTSIHWYQQKTDQAPKLLIKYASESISGIPSRFSGSGSGTDFTLTISSVEAEDAADYYCQQINSWPTTFGGGTKLEIKRT
B25: HeRX1-10G1 (format not stated) (antibody, V domains shown)
VH: B10 VH
VL: B24 VL
B26: HeRX1-10G1, IgG1_D265A (antibody, V domains shown)
VH: B10 VH
VL: B24 VL

What follows are binders tested against M-CSF endogenously expressed on MDA-MB-231 cells (human) (UniProt P09603) (assay: FACS, MDA-MB-231 cells endogenously expressing M-CSF (n = 2)).

Row | EC50 [nM] | Binder
1 | 13 | B1
2 | 10 | B2
3 | 9 | B3
4 | 8 | B4
5 | 10 | B5
6 | 10 | B6
7 | 14 | B7
8 | 26 | B8
9 | 19 | B9
10 | 27 | B10
11 | 23 | B11

What follows are binders tested against native human M-CSF (in human serum or in MDA-MB-231 conditioned medium) (human), P09603 (assay: cell-based or functional assay).
Sequence of native human M-CSF (in human serum or in MDA-MB-231 conditioned medium) (human), P09603 (P09603 33-255): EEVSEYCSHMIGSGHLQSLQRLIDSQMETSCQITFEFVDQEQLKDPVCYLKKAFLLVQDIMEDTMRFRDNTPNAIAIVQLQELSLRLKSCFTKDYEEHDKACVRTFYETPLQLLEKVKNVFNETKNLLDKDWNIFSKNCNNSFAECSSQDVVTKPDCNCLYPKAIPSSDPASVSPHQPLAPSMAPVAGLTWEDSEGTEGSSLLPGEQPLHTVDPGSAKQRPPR

Row | IC50, inhibition of M-NFS-60 proliferation induced by MDA-MB-231 conditioned medium [nM] | IC50, inhibition of M-NFS-60 proliferation induced by human serum (50%) [nM] | Binder | Cell viability assay (IC50), Human serum M-CSF [nM] | Cell viability assay (IC50), MDA-MB-231 [nM]
12 | 0.12 | 0.0183 | B12 |  | 
13 | 0.0724 | 0.0238 | B13 |  | 
14 | 0.107 | 0.0177 | B14 |  | 
15 |  |  | B15 | 0.018 | 0.099
16 | 0.0754 | 0.02 | B16 |  | 
17 | 0.095 | 0.0156 | B17 |  | 
18 | 0.0989 | 0.016 | B18 |  | 
19 | 0.0769 | 0.0151 | B19 |  | 
20 | 0.0985 | 0.0177 | B20 |  | 
21 | 0.0833 | 0.0252 | B21 |  | 
22 | 0.107 | 0.0932 | B22 |  | 
23 | 0.0708 | 0.0318 | B23 |  | 
24 | 0.0903 | 0.0154 | B24 |  | 
25 |  |  | B25 | 0.015 | 0.09
26 | 0.0591 | 0.0124 | B26 |  | 
